First the molecules themselves.
B1: TPR t1 (parent)
chain: GACCAAUCUGCCCUCAGAGCUCGAGAACAUCUUCGGAUGCAGAGGAGGCAGGCUUCGGUGGCGCGAUAGCGCCAACGUCCUCAACCUCCAAUGCAUCCCACCACAUGAUGAUGCCUGAAGAGCCUUGGUUUUUUG

We go through 167 variants from the RNAGym collection of RNA variant scans (doi:10.1073/pnas.2313332121).

This data set covers variants of B1. Briefly: polymerase ribozyme fitness, log enrichment relative to wild type (log ratio); higher = more active; in vitro selection for triplet polymerase activity. The method, boiled down: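 One round of in vitro selection, in triplicate, was applied to PCR-built, transcribed mutant libraries of each subunit of a heterodimeric triplet polymerase ribozyme. The steps were annealing with a biotinylated primer, partner subunit and triplets, incubation frozen at −7 °C, gel excision of extended constructs, streptavidin-bead capture and RT-PCR. Fitness is the logarithm, base 2, of genotype enrichment over wild-type enrichment from inverse-variance-weighted replicate averages of Illumina-sequenced inputs and outputs, keeping genotypes with ≥10 input reads and ≥1 read per output.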
U7G C76U: the “polymerase ribozyme fitness (log ratio)” value is 0.285. As to U9G A29G G39U U54A A83U, the “polymerase ribozyme fitness (log ratio)” value was -3.38. To G44A C72G C123A belongs -1.13; to G117A C123G, -1.9. As to C62G C86U, the “polymerase ribozyme fitness (log ratio)” value is -1.34. The figure for C8U U38C C115A is 0.431; for C53U C89U C104A C115U C124A U133G it is -4.17; for A121C U130A it is 0.644.

Consider A6U C94G G120A, for which the “polymerase ribozyme fitness (log ratio)” value worked out at 0.554. To C70U A74U belongs -0.47; to A37C A43C C53A G71C C86U A91C, -6.26; to U7C C13U G47U C85A A111U, -5.01. The figure for A6G C22U G44C C88U is -6.05; for U87A U92G G93U C104A A111G C114U U130C it is -7.15; for C11G C13U A37U A83C it is -0.361. To C8G C11G A24G C40U C56U C94U belongs -2.88; to G44A C53U C82U G117A C124A, -1.14. C34G G120U: the “polymerase ribozyme fitness (log ratio)” value was -4.75.

For G39U G128U, the “polymerase ribozyme fitness (log ratio)” value is -3.06. The figure for U78C A95C is -1.06; for C34U A46U C56G C72U G120C it is -5.35. As to A5U C12G G58C A90U C124G G128A, the “polymerase ribozyme fitness (log ratio)” value is -2.47. The figure for A105C A121G is 0.5; for A37U U54C G60U C123U it is 1.13. As to G23A C124A, the “polymerase ribozyme fitness (log ratio)” value is -1.95. The figure for C13A C22A C31A A46U G71A G120A is -6.56; for C82G C88A it is -1.21; for C11U G51C C85U it is -4.53.

Consider U59A A105G G113A U130C G135U, for which the “polymerase ribozyme fitness (log ratio)” value was -5.1. To C53G A91U belongs -1.68; to C4A U59C A90C, -3.84. To G44U G45A G122A belongs -3.13; to G61U U81G, -2.74. A29U G44U: the “polymerase ribozyme fitness (log ratio)” value was -3.06. The figure for A111C A119C G127U is -2.96; for A6G C34U G60U C72U U116A C124A it is -4.04. Turning to U38G C56U A91U U125G U126G G127U, the “polymerase ribozyme fitness (log ratio)” value is -3.43. The figure for C4A A18G G71U C89A A100C G113A C124U is -4.08; for G10U C40G C124U U129A it is -1.91. The figure for U7A C11G C12U A18C A29G G47U G60C is -5.79; for G39A C40U it is -1.56. To C70A A74U belongs -3.39; to C73G C104U, -0.454.

As to G10U C22G U106A G120C, the “polymerase ribozyme fitness (log ratio)” value was -2.7.

As to A2U G69U C102U G113A U129A, the “polymerase ribozyme fitness (log ratio)” value was -0.898. C20A C72G U81A U109A A118C G122A: the “polymerase ribozyme fitness (log ratio)” value is -5.92. The figure for C40G G61U is -2.33. In the case of G61C G110A, the “polymerase ribozyme fitness (log ratio)” value was -3.32. In the case of C4U C12G C49G A95U A111G, the “polymerase ribozyme fitness (log ratio)” value was -1.16. To G61U C85G C97U belongs -3.66.

In the case of A16U U81A, the “polymerase ribozyme fitness (log ratio)” value was -2.6. For C86U C98A, the “polymerase ribozyme fitness (log ratio)” value was -4.48. The figure for C11A A29G C56G A91C U112A A121G G122C is -1.75; for G39C U112A it is 0.828.

As to C49U G58C G60U C114U U129A, the “polymerase ribozyme fitness (log ratio)” value is -5.08.

Take C13U G117C: the “polymerase ribozyme fitness (log ratio)” value was -2.68. The figure for C11A G58C U59G U81A is -2.19; for A90C C101G it is -3.07. To A5C U7C G69U C85A U92C belongs -3.85. To A5G C13G G39A G51A U112C belongs -2.65. Turning to A5G A18G G44C G48C U55C U59G G117U, the “polymerase ribozyme fitness (log ratio)” value is -5.35. For the variant U14A C72U C85A G93A, the “polymerase ribozyme fitness (log ratio)” value was -3.6. To C13U A46G C104G belongs -5.37; to U33G C82A, -5.59; to G47A U96A C98G, -6.21. To C4U U21A C115G belongs -4.19; to C28G C56G, -3.01. To C72U C80U belongs -1.08; to G57U A121U, 1.92; to C34A C73A C85U U130A, -4.99. For the variant G110U A119U, the “polymerase ribozyme fitness (log ratio)” value was -1.65.

In the case of C8G A100U C115U, the “polymerase ribozyme fitness (log ratio)” value is -2.51.

Take G10U C20U U32A U125G: the “polymerase ribozyme fitness (log ratio)” value was -4.96. To A5G C13G A18C G35U A75G C79U A119G C123G U130C belongs -7.55. As for A37C C114G G120A C123U, the “polymerase ribozyme fitness (log ratio)” value is -5.25.

As to G10A G17C C34A G47U C72G C80U C124A, the “polymerase ribozyme fitness (log ratio)” value was -7.1. Take G35U U67G U109A C115U: the “polymerase ribozyme fitness (log ratio)” value was -7.12.

For G19A G58C C94G G120C, the “polymerase ribozyme fitness (log ratio)” value was -3.72. The figure for A46U C72U is -1.53; for G63A A91G it is -2.33. To C72A C80G C114A C123G U126A belongs -6.21; to C64U C85A U96G U125A, -2.82. To G25C A46U G61C C62A G113A C124A belongs -8.51. With C11G C15A G61A U125G, the “polymerase ribozyme fitness (log ratio)” value was -0.186. The figure for C15A A27G G39A G44A G69U G71U C82U C88U C102U is -6.86; for C12U G45U U132C it is -1.19.

With C13A C64U C115A, the “polymerase ribozyme fitness (log ratio)” value was -2.72. The figure for G47A C56U C73U C101U A119G G120U G127A is -1.08; for G69U C73U it is 0.225. To G47U C53U C104U belongs -1.72.

Consider C15U U54A A105U U112C, for which the “polymerase ribozyme fitness (log ratio)” value is -2.79. A46G A74G U92C: the “polymerase ribozyme fitness (log ratio)” value was -0.91. The figure for G10U C64U G113C is -1.87; for A41G G52A G61C C85U C124A U126C it is -5.73. To C13U G44C A74C A111C belongs -0.273; to C13U C64A, -6.

On to C11G A18U, for which the “polymerase ribozyme fitness (log ratio)” value was -1.34. Regarding C11A C56A A66G C85A U112A, the “polymerase ribozyme fitness (log ratio)” value is -4.09. The figure for C102U C124G is 0.125; for A18U U96A it is -3.21; for C4A C12G G117A G128C it is -1.61. The figure for C15A C49U A90U A108G C114G is -6.22; for C72U A118U it is 0.0221.

Take G48C C73A U112A G120C: the “polymerase ribozyme fitness (log ratio)” value is -0.954. As to C22G G45A U54A A95C C114U, the “polymerase ribozyme fitness (log ratio)” value is -5.19. To C12U G47U G120U belongs 0.786. On to G60A A74G, for which the “polymerase ribozyme fitness (log ratio)” value was -2.01. As for G36U C123G U131G, the “polymerase ribozyme fitness (log ratio)” value was determined as 0.0423.

For C49A G60U, the “polymerase ribozyme fitness (log ratio)” value was found to be 0.254.

On to C20U C56U, for which the “polymerase ribozyme fitness (log ratio)” value was -1.64.

Turning to G10A C56U C94G, the “polymerase ribozyme fitness (log ratio)” value is -0.664. The figure for U38G C64U is -1.09. The figure for C79U G128C is -2.48. The figure for C22U G57U is -4.03; for C62U U78C C101G A118G U133A it is -2.5; for C12A A43G C62U C124G G127U it is -0.505.

In the case of C3U G36C G58C U112G, the “polymerase ribozyme fitness (log ratio)” value is -0.836.

C8G G19A: the “polymerase ribozyme fitness (log ratio)” value is -1.89. The figure for G71U C97U is -0.285. To U38G G45C G69C C101A A119U belongs -7.2; to C8U C12U C88G, -0.238; to C11G A46G C79U C82U C98U A118U, -0.917.

As for A100U G113U C124U, the “polymerase ribozyme fitness (log ratio)” value was -3.92.

Regarding C72A C88A G120U, the “polymerase ribozyme fitness (log ratio)” value was -0.866. For A18U C56U C123G U129A, the “polymerase ribozyme fitness (log ratio)” value is -1.91.

Consider C70U U132C, for which the “polymerase ribozyme fitness (log ratio)” value was -0.89.

For G69U G113C, the “polymerase ribozyme fitness (log ratio)” value was -0.897.

G57C G60A G117U: the “polymerase ribozyme fitness (log ratio)” value was -2.47. To C15U A43U C72G C88U A91C G120C belongs -1.58; to A50U C53A U54A G93U A105U, -3.45. Turning to A43G A46U U55G, the “polymerase ribozyme fitness (log ratio)” value is -2.46. To C11A G42C A118G belongs -3.71; to U7A U9G C82G, -0.227; to G63A U78C C123A, -0.604. The figure for G107A C114U is -3.83; for A41C G52C C73G it is -2.96. To A27G A95U belongs -2.82; to G117U U133C, -2.23.

As for C22G G36A C101U, the “polymerase ribozyme fitness (log ratio)” value is -5.03. To C11G G17A G71U U81A C85U G117C belongs -6.69. C20U G113U: the “polymerase ribozyme fitness (log ratio)” value is -0.99. Regarding G63C C73U, the “polymerase ribozyme fitness (log ratio)” value was -0.69. The figure for C53A C76U U87C is -0.534; for U55A C79A U125G U133G it is -4.8; for A50U C64U A111G U125A it is -1.48.

For the variant G10U G45A U78A A100U, the “polymerase ribozyme fitness (log ratio)” value was -1.09. The figure for G44C G77A is -0.814. To G61U G93U belongs -0.532. To C8A C34U belongs -4.29. Turning to A37C C49U G61C, the “polymerase ribozyme fitness (log ratio)” value was -3.38. The figure for A37G C49A C56A G128C is -3.61. To U7G G63A C98A belongs -6.38; to C40A C56A C97U, -1.12.

As for G93A G113U, the “polymerase ribozyme fitness (log ratio)” value was -3.19. The figure for C28U U59G C86G C89U is -4.05; for G39A C73A it is -0.374. With G45U C49U G61A C115G, the “polymerase ribozyme fitness (log ratio)” value is -2.62.

As to A5G G58A G63A, the “polymerase ribozyme fitness (log ratio)” value is -0.764.

With G61A G120U G135U, the “polymerase ribozyme fitness (log ratio)” value was -0.818. The figure for U81G C82A is -2; for G45A C53A U78C U109G G110U A121U it is -3.1; for A46C C79A G120A it is -1.25. The figure for C11G A46C is -1.01. The figure for C11G C86U is -0.354. Turning to C72G C82U U131G, the “polymerase ribozyme fitness (log ratio)” value is -0.338.

C11U C20U C22A A91U G113A: the “polymerase ribozyme fitness (log ratio)” value is -4.25. The figure for G52U C72A C85A U106A G110U is -3.08.
